{
  "source": "patent US10385103B2",
  "about": "“Cell-permeable (ICP)-SOCS3 recombinant protein and uses thereof” (CELLIVERY THERAPEUTICS, INC., priority 2014, dated 2019)",
  "molecules": {"B1": {"name": "HM165S3B: His-tagged recombinant protein of aMTD165, human SOCS3 and solubilization domain B; prototype improved cell-permeable SOCS3 (protein)", "chain": "MGSSHHHHHHSSGLVPRGSHMALAVPVALAIVPVTHSKFPAAGMETSRPLDTSLRLKTFSSKSEYQLVVNAVRKLQESGFYWSAVTGGEANLLLSAEPAGTFLIRDSSDQRHFFTLSVKTQSGTKNLRIQCEGGSFSLQSDPRSTQPVPRFDCVLKLVHHYMETPPPGAPSFPSPPTEPSSEVPEQPSAQPLPGSPPRRAYYIYSGGEKIPLVLSRPLSSNVATLQHLCRKTVNGHLDSYEKVTQLPGPIREFLDQYDAPLGSMAEQSDKDVKYYTLEEIQKHKDSKSTWVILHHKVYDLTKFLEEHPGGEEVLGEQAGGDATENFEDVGHSTDARELSKTYIIGELHPDDRSKIAKPSETL", "modifications": "Amino acid sequence of HM165S3B"}},
  "key": {"HepG2 cells [1]": {"system": "HepG2 cells", "test": "Invasion assay (matrigel-coated Transwell)", "assay_type": "cell-based, human", "conditions": "24 hrs, compared with the control proteins", "protocol": "The lower surface of Transwell inserts (Costar) was coated with 0.1% gelatin, the upper surface of Transwell inserts was coated with matrigel (40 μg per well; BD Pharmingen, San Diego, Calif., USA), and the membranes were allowed to dry for 1 hr at room temperature. The Transwell inserts were assembled into a 24-well plate, and the lower chamber was filled with growth media containing 10% FBS and FGF2 (40 ng/ml). Cells (5×10^5) were added to each upper chamber, and the plate was incubated at 37° C. in a 5% CO2 incubator for 24 hrs. Migrated cells were stained with 0.6% hematoxylin and 0.5% eosin and counted."}, "Chang cell": {"system": "Chang cell", "test": "Cell viability of non-cancer cells, CellTiter-Glo", "assay_type": "cell-based, human", "conditions": "10 μM over 4 days", "protocol": "Cells originated from human hepatocellular carcinoma cell (Hep3B, HepG2, Huh-7, SK-Hep1), human normal cells (HEK293, HaCaT, Chang liver cell) and mouse fibroblast (NIH3T3) were purchased from ATCC (Manassas, Va., USA) and KCLB (Seoul, Korea). All the cells were maintained as recommended by the supplier. These cells (3×10^3/well) were seeded in 96 well plates. The next day, cells were treated with DMEM (vehicle) or 10 μM recombinant SOCS3 proteins for 96 hrs in the presence of serum (2%). Proteins were replaced daily. Cell growth and survival were evaluated with the CellTiter-Glo Cell Viability Assay (Promega, Madison, Wis.). Measurements using a Luminometer (Turner Designs, Sunnyvale, Calif.) were conducted following the manufacturer's protocol."}, "AGS cells [2]": {"system": "AGS cells", "test": "Induction of apoptosis by Annexin V/7-AAD staining in gastric carcinoma cells", "assay_type": "cell-based", "conditions": "10 uM, 14 hours", "protocol": "(§1) AGS cells (gastric carcinoma cell line) (American Type Culture Collection; ATCC) were seeded in a 12-well plate at a density of 1×10^5 cells/well, and then treated with 10 uM of aMTD/SD-fused SOCS3 for 14 hours. Cancer cell death was analyzed by Annexin V analysis. Annexin V/7-Aminoactinomycin D (7-AAD) staining was performed using flow cytometry according to the manufacturer's guidelines (BD Pharmingen, San Diego, Calif., USA). Briefly, cells were washed three times with ice-cold PBS. The cells were then resuspended in 100 μl of binding buffer and incubated with 1 μl of 7-AAD and 1 μl of annexin V-PE for 30 min in the dark at 37° C. Flow cytometric analysis was immediately performed using a guava easyCyte™ 8 Instrument (Merck Millipore, Darmstadt, Germany)."}, "Huh7 cells": {"system": "Huh7 cells", "test": "Induction of apoptosis, Annexin V/7-AAD staining", "assay_type": "cell-based, human", "conditions": "example 20-2", "protocol": "as §1\n(§2) The effect of inducing apoptosis of Chang liver cells was measured in the same manner as in Example 11-2, except that as target cell lines, normal Chang liver cells and hepatocellular carcinoma cell lines, Hep3B, HepG2, Huh7, and SK-HEP-1 were used, and as a reference drug, 5-FU® (IC50: 40 μM) was used."}, "Hep3B cells": {"system": "Hep3B cells", "test": "Induction of apoptosis, Annexin V/7-AAD staining", "assay_type": "cell-based, human", "conditions": "example 20-2", "protocol": "as §1, §2"}, "SK-Hep-1 cells": {"system": "SK-Hep-1 cells", "test": "Induction of apoptosis, Annexin V/7-AAD staining", "assay_type": "cell-based, human", "conditions": "example 20-2", "protocol": "as §1, §2"}, "normal Chang liver cells": {"system": "normal Chang liver cells", "test": "Induction of apoptosis, Annexin V/7-AAD staining", "assay_type": "cell-based, human", "conditions": "example 20-2", "protocol": "as §1, §2"}, "Chang liver cells": {"system": "Chang liver cells", "test": "Wound cell migration assay", "assay_type": "cell-based, human", "conditions": "10 μM 2 hrs, additional 24-72 hrs", "protocol": "(§3) Cells were seeded into 12-well plates, grown to 90% confluence, and incubated with 10 μM Non-CP-SOCS3 (HS3B), iCP-SOCS3 (HM165S3B) in serum-free medium for 2 hrs prior to changing the growth medium (recommended medium by the supplier). The cells were washed twice with PBS, and the monolayer at the center of the well was “wounded” by scraping with a pipette tip. Cells were cultured for an additional 24-72 hrs and cell migration was observed by phase contrast microscopy (Nikon, ECLIPSE Ts2). The migration was quantified by counting the number of cells that migrated from the wound edge into the clear area."}, "Huh-7 cells": {"system": "Huh-7 cells", "test": "Wound cell migration assay", "assay_type": "cell-based, human", "conditions": "10 μM 2 hrs, additional 24-72 hrs", "protocol": "as §3"}, "HepG2 cells [3]": {"system": "HepG2 cells", "test": "Wound cell migration assay", "assay_type": "cell-based, human", "conditions": "10 μM 2 hrs, additional 24-72 hrs", "protocol": "as §3"}, "AGS cells [4]": {"system": "AGS cells", "test": "Wound cell migration inhibition in gastric carcinoma cells", "assay_type": "cell-based", "conditions": "10 μM 2 hrs, additional 24 hrs", "protocol": "AGS cells (gastric cancer cell line) were seeded in a 12 well plate at a density of 2.5×10^5 per well, grown to 90% confluence. Confluent AGS cells were incubated with 10 μM HM#S3B in serum-free medium for 2 hrs prior to changing the growth medium (DMEM/F12, Hyclone, Logan, Utah, USA) and washed twice with PBS, and the monolayer at the center of the well was “wounded” by scraping with a sterilized white pipette tip. Cells were cultured for an additional 24 hrs and cell migration was observed by phase contrast microscopy (Nikon, ECLIPSE Ts2). The migration was quantified by counting the number of cells that migrated from the wound edge into the clear area."}, "IL-6": {"system": "IL-6", "test": "LPS/IFN-γ-induced cytokine secretion in peritoneal macrophages (cytometric bead array), IL-6", "assay_type": "cell-based, C3H/HeJ mice", "conditions": "10 μM protein; IFN-γ and LPS", "protocol": "Peritoneal macrophages were obtained from C3H/HeJ mice (Doo-Yeol Biotech Co. Ltd. Korea) Peritoneal macrophages were incubated with 10 μM SOCS3 recombinant proteins (1:HS3, 2:HM165S3, 3:HM165S3A and 4:HM165S3B, respectively) for 1 hr at 37° C. and then stimulated them with LPS (Lipopolysaccharide)(500 ng/ml) and/or IFN-γ (100 U/ml) without removing iCP-SOCS3 proteins for 3, 6, or 9 hrs. The culture media were collected, and the extracellular levels of cytokine (TNF-α, IL-6) were measured by a cytometric bead array (BD Pharmingen, San Diego, Calif., USA) according to the manufacturer's instructions."}, "[5]": {"conditions": "listed as aMTD165-fused SOCS3 recombinant protein"}},
  "note": "“Also recorded” adds a separate entry of the source.",
  "data": [
    {"molecule": "B1", "values": [
      {"measurement": "invasion, HepG2", "setting": "HepG2 cells [1]", "value": "remarkable decrease in invasion"},
      {"measurement": "cell viability of non-cancer cells (Chang cell)", "setting": "Chang cell", "value": "not overly toxic to normal cells"},
      {"measurement": "induction of apoptosis (Annexin V)", "setting": "AGS cells [2]", "value": "showed high anticancer efficacy; also recorded: effects of inducing apoptosis"},
      {"measurement": "induction of apoptosis (Annexin V)", "setting": "AGS cells [2]; [5]", "value": "induced death of the largest number of cancer cells"},
      {"measurement": "induction of apoptosis (Annexin V), Huh7", "setting": "Huh7 cells", "value": "considerably efficient inducer of apoptosis"},
      {"measurement": "induction of apoptosis (Annexin V), Hep3B", "setting": "Hep3B cells", "value": "considerably efficient inducer of apoptosis"},
      {"measurement": "induction of apoptosis (Annexin V), SK-HEP-1", "setting": "SK-Hep-1 cells", "value": "considerably efficient inducer of apoptosis"},
      {"measurement": "induction of apoptosis (Annexin V), normal Chang liver cells", "setting": "normal Chang liver cells", "value": "dose not induced apoptosis in normal cells"},
      {"measurement": "wound cell migration, normal Chang liver cells", "setting": "Chang liver cells", "value": "had no effect on the cell migration"},
      {"measurement": "wound cell migration, Huh-7", "setting": "Huh-7 cells", "value": "suppressed the repopulation of wounded monolayer"},
      {"measurement": "wound cell migration, HepG2", "setting": "HepG2 cells [3]", "value": "suppressed the repopulation of wounded monolayer"},
      {"measurement": "inhibition of cell migration (wound)", "setting": "AGS cells [4]", "value": "inhibiting migration of gastric carcinoma cells"},
      {"measurement": "inhibition of cell migration (wound)", "setting": "AGS cells [4]; [5]", "value": "showed the most effective inhibition of cancer cell migration"},
      {"measurement": "effect on IL-6 secretion", "setting": "IL-6", "value": "showed the greatest inhibitory effect on cytokine secretion"}
    ]}
  ]
}
